In the supplement of paper PMC7125110:
± gives the standard error. Fewer inactive variants are shown than the library holds.

B1: glmS ribozyme (parent)
chain: AUAAAAGCGCCAGAACUACAGAAAUGUAGUUGACGAGGAGGAGGUUUAUCGAAUUUUCGGCGGAUGCCUCCAAA

How the values were obtained:
Settings in all cases: with glucosamine-6-phosphate
glucosamine-6-phosphate [1] = variants of: B1; assay: self-cleavage kobs at 40 uM GlcN6P; higher = faster cleavage; RNA array
Summary of the method: (§1)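 Tracking of barcoded ribozyme variants used a hybridised Cy3 probe at 37 °C, after in situ transcription by E. coli RNA polymerase on sequenced MiSeq chips. The flowed solution held 40 μM to 10 mM glucosamine-6-phosphate in HEPES/KCl/Mg(OAc)2 buffer, and imaging ran over ~14 h. kobs was taken from exponential decay fits of normalised per-tile medians, and kcat and KM from weighted Michaelis–Menten fits.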

glucosamine-6-phosphate [2] = variants of: B1; assay: self-cleavage kobs at 160 uM GlcN6P; higher = faster cleavage; RNA array
Summary of the method: as §1

glucosamine-6-phosphate [3] = variants of: B1; assay: self-cleavage kobs at 640 uM GlcN6P; higher = faster cleavage; RNA array
Summary of the method: as §1

glucosamine-6-phosphate [4] = variants of: B1; assay: self-cleavage kobs at 2500 uM GlcN6P; higher = faster cleavage; RNA array
Summary of the method: as §1

glucosamine-6-phosphate [5] = variants of: B1; assay: self-cleavage kobs at 10000 uM GlcN6P; higher = faster cleavage; RNA array
Summary of the method: as §1

Variant | self-cleavage kobs at 40 uM GlcN6P (glucosamine-6-phosphate [1]) [s⁻¹] | self-cleavage kobs at 160 uM GlcN6P (glucosamine-6-phosphate [2]) [s⁻¹] | self-cleavage kobs at 640 uM GlcN6P (glucosamine-6-phosphate [3]) [s⁻¹] | self-cleavage kobs at 2500 uM GlcN6P (glucosamine-6-phosphate [4]) [s⁻¹] | self-cleavage kobs at 10000 uM GlcN6P (glucosamine-6-phosphate [5]) [s⁻¹]
AUAAAAGCGCCAGAACUACAGAAAUGUAGUUGACGAGGAGGAGGUUUAUCGAAUUUGCGCCGGAUGCCUCCAAA [U57G G60C] | < 1e-05 | < 1e-05 | < 1e-05 | < 1e-05 | 
AUAAAAGCAACAGAACUACAGAAAUGUAGUUAACGAGGAGGAGGUUUAUCGAAUUUUCGGCGGAUGCCUCCAAA [G9A C10A G32A] | < 1e-05 |  |  |  | 
AUAAAAGCGCCAGGACUACAGAAAUGUAGAUGACGAGGAGGAGGUUUAUCGAAUUUUCGGCGGAUGCCUCCAAA [A14G U30A] | 0.000672 ± 0.00011 | 0.00098 ± 0.00024 | 0.00759 ± 0.0013 | 0.0384 ± 0.012 | 0.017 ± 0.0042
AUAAAAGCGCCUGGAGUACAGAAAUGUAGUUGACGAGGAGGAGGUUUAUCGAAUUUUCGGCGGAUGCCUCCAAA [A12U A14G C16G] | 0.000643 ± 0.00021 |  |  |  | 
AUAAAAGCGCCAGAACUACAGAAAUGUAGUUGACGAGGAGGUGGUUUAUCGAAUUUUCGGCGGAUCCCUCCAAA [A42U G66C] | < 1e-05 | < 1e-05 |  |  | 
AUAAAAGCGCCAGAACUACAGAAAUGUAGUUGACGAGGAGGAGGUUAAUCUAAUUUUCGGCGGAUGCCUCCAAA [U47A G51U] | < 1e-05 | < 1e-05 |  |  | < 1e-05
AUAAACGCGCCAGAACUACAGAAAUGUAGUUCACGAGGAGGAGGUUUAGCGAAUUUUCGGCGGAUGCCUCCAAA [A6C G32C U49G] | < 1e-05 |  |  |  | < 1e-05
AUAAAAAGGCCAGAACUACAGAAAUGUAGUUGACGAGGAGGAGGUUUAUCGAAUUUUCGGCGGAUGCCUCCAAA [G7A C8G] | < 1e-05 | < 1e-05 | < 1e-05 | < 1e-05 | < 1e-05
AUAAAAGCGCCAGAACUACAGAAAUGUAGUUCACGAGGAGGAGGUUUAGCGAAUUUUCGGCGGAUGCCUCCAAA [G32C U49G] | < 1e-05 | < 1e-05 | < 1e-05 |  | 
AUAAAAGCGCCAGAACUACAGAAAUGUAGUUGAAGAGGGGGAGGUUUAUCGAAUUUUCGGCGGCUGCCUCCAAA [C34A A39G A64C] | < 1e-05 |  | < 1e-05 | < 1e-05 | < 1e-05
AUAAAGGCACCAGAACUACAGAAAUGUAGUUGACGAGAAGAAGGUUUAUCGAAUUUACGGCGGAUGCCUCCAAA [A6G G9A G38A G41A U57A] | < 1e-05 | < 1e-05 | < 1e-05 | < 1e-05 | 
AUAAAAGCGCCAGCACUACAGAAAUGUAGUUGACGAGGAGGAGGUUUGUCGAAUUUUCGGCGGAUGCCCCCAAA [A14C A48G U69C] | < 1e-05 |  |  |  | 
AUAAAAGUACCAGAACUACAGAAAUGUAGUUGACGAGGAGGAGGUUUAUCGAAUUUUCGGCGGAUGCCUCCAAA [C8U G9A] | < 1e-05 | < 1e-05 | < 1e-05 | < 1e-05 | < 1e-05
AUAAAAGGGCCAGAACUACAGAAAUGUAGUUGACGAGGAGGAGGCUUAUCGAAUUUUCGGCAGAUGCCUCCAAA [C8G U45C G62A] | < 1e-05 |  |  |  | < 1e-05
AUAAAAGCGCCAGUACUACAGAAAUGUAGUUGACGAUGAGGAGGUUUAUCGAAUUUUCGGCGGAUGCCUACAAA [A14U G37U C70A] | < 1e-05 |  |  |  | 
AUAAAAGCGCCAGCACUACAGAAAUGUAGUUGACGAGGAUGAGGUCUAUCGAAUUUUCGGCGGAUGCUUCCAAA [A14C G40U U46C C68U] | < 1e-05 |  |  |  | 
AUAAAAGCGCCAGAACUACAGAAAUGUAGUUGACGAGGAGGAGGUUUAUCGAAUUUUCGGCGGAUGCUGCAAAA [C68U U69G C71A] | < 1e-05 |  |  |  | 
AUAAAAGCGCCAGAAUUACAGAAAUGUAGAGGACGAGGAGGAGGUUUAUCGAUUUUUCUGCGGAUGCCUCCAAA [C16U U30A U31G A53U G59U] | < 1e-05 |  |  | < 1e-05 | 
AUAAAAGGGCCAGAACUACAGAAAUGUAGUUGACGAGGAGGAGGUUUAUCGAAUUUUCGGGGGAUGCCUCCAAA [C8G C61G] | < 1e-05 | < 1e-05 | < 1e-05 | < 1e-05 | < 1e-05
AUAAAAGCGCCAGAACUACAGAAAUGUAGUUGACGAGGAGGAGGUUUGUCGAAUUUUCGGCGGACGCCUCCAAA [A48G U65C] | < 1e-05 |  |  |  | < 1e-05
AUAAAAGCGCCAGAACUACAGAAAUGUAGUUGACUAGGAGGAGGUGUAUCGAAUUUUCGGCGGAUGCCUCCAAA [G35U U46G] | < 1e-05 | < 1e-05 | < 1e-05 | < 1e-05 | < 1e-05
AUAAAAGCGAGAGAACUACAGAAAUGUAGUUGACGAGGAGGAGGUUUAUCGAAUUUUCGGCGGAUGCCUCCAAA [C10A C11G] | < 1e-05 | < 1e-05 | < 1e-05 |  | 
AUAAAAGCGCCAGAACUACAGAAAUGUAGUUGACGAGGUGGGGGUUUAUCGAAUUGUCGGCGGCUGCCUCCAAA [A39U A42G U56G A64C] | < 1e-05 |  |  |  | 4.69e-05 ± 1.8e-05
AUAAAAGCGCCAGAACUACAGAAAUGUAGUUGCCGAGGAGGAGGUUUAUCGAAUUUUCGGCCGAUGCCUCCAAA [A33C G62C] | < 1e-05 |  | < 1e-05 | < 1e-05 | < 1e-05
AUAAAAGCGCCAGAACUACAGAAAUGUAGGUGACGAGGAGGGGGUUUAUCGAAUGUUCGGCGGAUGCCUCCAAA [U30G A42G U55G] | 0.000185 ± 4.5e-05 |  |  | 0.0026 ± 0.00051 | 0.00677 ± 0.0014
AUAAAAGCGCCAGAACUACAGAAAUGUAGUUGACGACGAGGCGGUUUAUCGAAUUUUCGGCGGAUGCCUCCAAA [G37C A42C] | < 1e-05 | < 1e-05 |  | < 1e-05 | 
AUAAAAGCGCCAGAACUACAGAAAUGUAGUUGACGAGGAGGAGGAUUAUCGAAUUUUCGACGGAUGCCUCCAAA [U45A G60A] | < 1e-05 | < 1e-05 |  |  | 
